Measured values published in patent US20120087899A1.

Legend:
[1] = tested on: Antithrombin (AT)
[2] = target: Bone morphogenetic protein-2 (BMP-2) (Homo sapiens) (UniProt P12643); experiment: cell-based or functional assay
UniProt P12643, sequence (P12643 283-396, form in doubt): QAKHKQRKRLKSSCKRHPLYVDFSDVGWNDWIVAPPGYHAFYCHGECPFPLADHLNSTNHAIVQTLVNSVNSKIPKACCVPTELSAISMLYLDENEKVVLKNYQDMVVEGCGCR

Substance | FXa activity (cleavage of chromogenic substrate S-2222), AT pre-incubated with HS5 [1] | FXa activity (cleavage of chromogenic substrate S-2222), AT pre-incubated with heparin [1] | FXa activity (cleavage of chromogenic substrate S-2222), AT pre-incubated with pHS or bHS [1] | inhibition of BMP-2-induced ALP activity in C2C12 cells, noggin at 300 ng/mL, in the presence of heparin or HS5 (3 µg/mL) [2] [%] | inhibition of BMP-2-induced ALP activity in C2C12 cells, noggin at 300 ng/mL, no GAG [2] [%]
Factor Xa (FXa) | HS5 did not activate AT at any doses tested | heparin (a known anticoagulant) dose dependently activated AT resulting in the inhibition of FXa | In the presence of pHS or bHS, AT significantly reduced FXa activity, but only at 3 µg/mL | – | –
noggin (ligand) | – | – | – | 20 | 70
